Measured values published in US20100209945A1 (KOREA RESEARCH INSTITUTE OF BIOSCIENCE AND BIOTECHNOLOGY, published 2010).

What was measured:
BSA = biological target: T1, BSA (UniProt P02769 25-607); assay: SPR (Biacore 3000), peptide hybrid coupled to a dextran CM-5 Au chip; legend: chip of formula 1, paragraph 80: hybrid of 1a
T1 construct: Control protein; also called BSA (control)
Protocol: Antibody solutions containing different animal originated antibodies of Example 2 or 5 μg/ml of BSA (control) in PBS were spilled on the chip of Example <3-1> at the speed of 10 μl/minute to bind the antibody to the peptide hybrid on the surface of the chip. The binding capacity was measured by surface plasmon resonance (SPR) using Biacore 3000.

human originated HIgG1 [1] = biological target: T2, human originated HIgG1; assay: SPR (Biacore 3000), hybrid of 1a on CM-5 chip, antibody at 100-1,000 nM, nonlinear regression with BIAevaluation
T2 construct: also called human IgG1 (anti CRP) antibody
Protocol: (§1) The antibody solutions containing HIgG1, rabbit IgG, MIgG3 antibodies at the concentrations of 100 nM, 250 nM, 500 nM and 1,000 nM were spilled on the chip surface-treated with the hybrid of 1a of Example <3-1> at the speed of 10 μl/minute to induce the binding reaction and the degree of binding was measured by surface plasmon resonance (SPR) using Biacore 3000.
(§2) As a result, SPR sensor gram values represented in dotted line were obtained. The values were analyzed by nonlinear regression using BIAevaluation software equipped in Biacore 3000 to draw a theoretical line graph (FIG. 4a). From the theoretical graph, kinetic coefficients shown in FIG. 4b were obtained and the overlapping of each dotted line on the line indicates the calculation was correct.

rabbit originated IgG [2] = biological target: T3, rabbit originated IgG; assay: as above
T3 construct: also called rabbit IgG; rabbit originated antibodies
Protocol: as §1, §2

human originated HIgG1 [3] = biological target: T2, human originated HIgG1; assay: SPR (Biacore 3000), hybrid of 1a on a CM-5 chip, antibody at 100 to 1000 nM, nonlinear regression with BIAevaluation
Protocol: as §1, §2

rabbit originated IgG [4] = biological target: T3, rabbit originated IgG; assay: as above
Protocol: as §1, §2

[5] = biological target: mouse originated antibody MIgG3; assay: SPR (Biacore 3000), hybrid of 1a on a CM-5 chip, antibody at 100 to 1000 nM, nonlinear regression with BIAevaluation; Kon and Koff printed as NA
Protocol: as §1, §2

T1 sequence (P02769 25-607 limits assumed): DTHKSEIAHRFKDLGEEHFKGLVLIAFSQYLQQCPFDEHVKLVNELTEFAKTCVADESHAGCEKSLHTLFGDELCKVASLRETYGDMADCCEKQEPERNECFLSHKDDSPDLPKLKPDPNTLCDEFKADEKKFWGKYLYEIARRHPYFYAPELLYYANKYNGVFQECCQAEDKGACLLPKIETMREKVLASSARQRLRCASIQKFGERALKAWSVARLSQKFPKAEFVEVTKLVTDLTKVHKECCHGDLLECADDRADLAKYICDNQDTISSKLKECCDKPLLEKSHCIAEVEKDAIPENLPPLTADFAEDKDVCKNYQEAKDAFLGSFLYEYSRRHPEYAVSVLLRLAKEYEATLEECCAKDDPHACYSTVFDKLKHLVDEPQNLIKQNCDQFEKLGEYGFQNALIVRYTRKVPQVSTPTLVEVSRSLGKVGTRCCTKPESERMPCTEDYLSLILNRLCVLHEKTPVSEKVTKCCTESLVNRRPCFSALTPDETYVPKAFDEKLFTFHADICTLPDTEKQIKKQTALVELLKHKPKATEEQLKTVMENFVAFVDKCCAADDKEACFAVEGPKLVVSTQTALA

B1: peptide hybrid for protein immobilization represented by formula 1a (H2N(CH2CH2O)2CH2CH2CO-EDDC*AWHLGELVWC*T-CONH2) (peptide)
peptide: EDDCAWHLGELVWCT
modifications: N-terminal H2N(CH2CH2O)2CH2CH2CO- (PEG linker); C-terminal amide (CONH2); disulfide bond between the two Cys (C*)
notes: Synthetic peptide-PEG hybrid; In the assays it was coupled through its terminal amine to a CM-5 chip, magnetic micro beads or a glass plate; also called hybrid of 1a; peptide hybrid of 1a
B1 was tested, and the binding result (BSA) was “no binding”, the Kd (human originated HIgG1 [1]) was 85 nM and the Kd (rabbit originated IgG [2]) was 305 nM. For the same binder, the koff (human originated HIgG1 [3]) was 0.02 s⁻¹, the kon (human originated HIgG1 [3]) was 230000 M⁻¹ s⁻¹ and the koff (rabbit originated IgG [4]) was 0.043 s⁻¹. For the same binder, the kon (rabbit originated IgG [4]) was 140000 M⁻¹ s⁻¹ and the Kd [5] was > 20000 nM.
